Results as given in article PMC4113996, “Prediction and characterization of enzymatic activities guided by sequence similarity and genome neighborhood networks” (eLife, 2014).

Legend:
Assay in all cases: purified protein
[1] = substrate: O=C(O)C1=NCCC1; assay type: biochemical, Pseudomonas aeruginosa; settings: 0.16 mM NADPH, 50 mM Tris-HCl pH 7.6, 25°C
[2] = substrate: O=C(O)C1=NCCC1; assay type: biochemical, Agrobacterium fabrum; settings: 0.16 mM NADPH, 50 mM Tris-HCl pH 7.6, 25°C
[3] = substrate: O=C(O)[C@@H]1C[C@@H](O)CN1; settings: 4HypE reaction (start from t4Hyp as in Figure 1), 50 mM Na-phosphate pH 8.0, 1 mM DTT, 25°C
[4] = substrate: O=C(O)C1=NCCC1; assay type: biochemical, Bacillus cereus; settings: 0.16 mM NADPH, 50 mM Tris-HCl pH 7.6, 25°C

B1: PA1252 (Q9I492) (Pseudomonas aeruginosa PAO1) (protein)
chain: MIRMTLDEVRELAVRILRRHAFSEAHVQAVADTLVAGERDECASHGIWRLLGCIATLKAGKVSADAEPELHDIAPGLLRVDAHGGFSQCAFRLGLPHLLEKARSQGIAAMAVNRCVHFSALWVEVEALTEAGLVALATTPSHAWVAPAGGRKPIFGTNPIAFGWPRPDGPPFVFDFATSAVARGEIQLHERAGKPIPLGWGVDEQGEPTTDASAALRGAMLTFGGHKGSALAAMVELLAGPLIGDLTSAESLAYDEGSRSSPYGGELLIAIDPRRMLGASAEEHLARAETLFEGIVEQGARLPSQRRFEARERSARDGVTIPEALHRELLALLE
Km [1]: 0.41 ± 0.06 mM | kcat [1]: 1.6 ± 0.05 s⁻¹

B2: Atu4676 (Q7CVK1) (Agrobacterium fabrum str. C58) (protein)
chain: MSDTTTLTIEALFQRVESIFLRAGLNAVQSGALARVITAGERDACKSHGIYRIEGALRTVKAAKVKPDAIPEVAEDDGTAIVKVNAMGGFANPAFELGLPALAERAKRLGLAALVINDCTHFSALWPEVEGLTSNGLAGLVMCPSYSTVAPTGGTKPLLGTNPFAFGWPRKDTSPYVFDFATSVAARGEIELHRRARKSLPEGWAVDADGNPTTDPEAALAGAMLPFGGHKGSAIGTMIELLAGIMIGDLTSPEVLDYLGTTTLAPFHGELIVAFSPEAFAKGRPGDPFQRAEVLFEAIIGQGARLPSGRRFAARAKSESEGITLTAAEMAGLDRLLEKGLDAVS
Km [2]: 0.33 ± 0.04 mM | kcat [2]: 32 ± 1 s⁻¹

B3: Avi_0518 (B9JQV3) (Allorhizobium ampelinum S4) (protein)
chain: MRWKRMMQLLDVHCEGEIGKVAIGGVPKIPGDTVADQLHWLNTDPKGRELRHFLVLEPRGAPIGSVNLLLPAKDSRADAAFIILQPDQAHASSGSNSICVTTALLESGMIEMQEPETVVMLETAAGLVKAVAQCRDGHCDSVTLTMVPSFVHELDAQIATESWGEIRFDLAYGGVFYALVDVRQLGLTIEPGNARRLVEAGMLLKGEINQRIQVVHPDIPAISGVAYVMFRDEDPDGAVRTCTTMWPGRVDRSPCGTGNSANLATLHARGRVKPGDSFLSRSIIGSQFTVGLQGLTTVAGRSAVIPTITGRGFTYGIHQVALDAFDPLGGGFVLTDVWGAAAETIKI
Km [3]: 5.6 ± 0.5 mM

B4: BC_0906 (Q81HB0) (Bacillus cereus ATCC 14579) (protein)
chain: MLVISANEQRNLVNMNEVIEYAALALKEFSAERTITPIRGSLPFANEQNTALIMPSVAEGLEALGVKIVTVVPQNKQIGKKTINGIVMLSDFQAGEPLALLEGSYLTMIRTGALSGVATKYLARHNAKTLCIIGTGEQAKGIAEAIFAVRDIEKVILYNRTEEKAYAFAQYIQEKFGKPAYVYKDPNEAVREADIIVTTTNATTPVFSEILQKGVHVNAVGSFRPSMQELPSHAIAKANKVVVESKEAALDETGDLQVPIKEGLFKANAIHAELGQIISGEKAGRENDEEITIFKSVGLAVVDIIVAKYLYERALEQGVGNKIEF
Km [4]: 0.47 ± 0.1 mM | kcat [4]: 15 ± 1 s⁻¹
